Earlier results, collected in article PMC3791837.

Biological target: FcγRIIA (Homo sapiens) (UniProt P12318)
Assay: confocal analysis of transfected cells

Sequence of UniProt P12318 (P12318 34-217): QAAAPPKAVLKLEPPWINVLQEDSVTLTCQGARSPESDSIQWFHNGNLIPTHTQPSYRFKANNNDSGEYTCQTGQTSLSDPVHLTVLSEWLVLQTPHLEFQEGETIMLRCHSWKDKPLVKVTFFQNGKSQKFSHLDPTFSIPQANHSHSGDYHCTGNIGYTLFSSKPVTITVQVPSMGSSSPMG

Kd: 3.7 µM
Substance: CRP (from UniProt P02741)
